Test results from patent US20190248900A1 (Y BIOLOGICS, published 2019).

Key:
[1] = molecular target: T1, human PD-1 (NM_005018.2) over-expressed on cells (human, UniProt Q15116 25-288); experiment: cell-based or functional assay
[2] = molecular target: T1, human PD-1 (NM_005018.2) over-expressed …; experiment: flow cytometry on cells over-expressing human PD-1, Geometric Mean
Protocol: 0.5 to 1×10⁶ cells per sample were each prepared from the transformation cell pools highly expressing human PD-1, and antibodies were serially diluted at a constant dilution rate and reacted with the prepared cells at 4° C. for 20 minutes. Then, the cells were washed three times with PBS (#LB001-02, Welgene) containing 2% fetal bovine serum and reacted at 4° C. for 20 minutes with an anti-human IgG antibody (#FI-3000, Vectorlabs) conjugated with a FITC (fluorescein isothiocyanate) fluorescent substance. Then, the cells were subjected to the same washing process as above and then suspended in 0.5 ml of PBS containing 2% FBS (#26140-079, Thermo Fisher) with an FACSCanto II flow cytometer (BD Biosciences, USA) as a flow cytometer.

M7 [3] = molecular target: T2, M7; experiment: ELISA, 1 ug/ml
T2 construct: also called PD1 mutant M7

M1 [4] = molecular target: T3, M1; experiment: ELISA, 1 ug/ml
T3 construct: also called PD1 mutant M1

M13 = molecular target: T4, M13; experiment: ELISA, 1 ug/ml
T4 construct: also called PD1 mutant M13

M10 = molecular target: T5, M10; experiment: ELISA, 1 ug/ml
T5 construct: also called PD1 mutant M10

M11 [5] = molecular target: T6, M11; experiment: ELISA, 1 ug/ml
T6 construct: also called PD1 mutant M11

M5-1 = molecular target: T7, M5-1; experiment: ELISA, 1 ug/ml
T7 construct: also called PD1 mutant M5-1

M5 [6] = molecular target: T8, M5; experiment: ELISA, 1 ug/ml
T8 construct: also called PD1 mutant M5

M8 [7] = molecular target: T9, M8; experiment: ELISA, 1 ug/ml
T9 construct: also called PD1 mutant M8

M9 [8] = molecular target: T10, M9; experiment: ELISA, 1 ug/ml
T10 construct: also called PD1 mutant M9

M3 [9] = molecular target: T11, M3; experiment: ELISA, 1 ug/ml
T11 construct: also called PD1 mutant M3

M12 [10] = molecular target: T12, M12; experiment: ELISA, 1 ug/ml
T12 construct: also called PD1 mutant M12

M7 [11] = molecular target: T2, M7; experiment: scFv-phage ELISA
M1 [12] = molecular target: T3, M1; experiment: scFv-phage ELISA
M2-1 = molecular target: T13, M2-1; experiment: scFv-phage ELISA
T13 construct: also called PD1 mutant M2-1

M1-1 = molecular target: T14, M1-1; experiment: scFv-phage ELISA
T14 construct: also called PD1 mutant M1-1

M14 = molecular target: T15, M14; experiment: scFv-phage ELISA
T15 construct: also called PD1 mutant M14

M6 = molecular target: T16, M6; experiment: scFv-phage ELISA
T16 construct: also called PD1 mutant M6

M11 [13] = molecular target: T6, M11; experiment: scFv-phage ELISA
M5 [14] = molecular target: T8, M5; experiment: scFv-phage ELISA
M8 [15] = molecular target: T9, M8; experiment: scFv-phage ELISA
[16] = molecular target: T17, antigen PD1 (coated, construct not stated) (UniProt Q15116 25-170, limits assumed); experiment: scFv-phage ELISA
T17 construct: also called PD1 antigen; PDCD1
T17 sequence (Q15116 25-170 limits assumed): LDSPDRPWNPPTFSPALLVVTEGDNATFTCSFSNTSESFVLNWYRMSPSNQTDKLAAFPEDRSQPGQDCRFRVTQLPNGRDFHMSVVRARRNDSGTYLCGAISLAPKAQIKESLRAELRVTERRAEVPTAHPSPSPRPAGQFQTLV

M2-2 = molecular target: T18, M2-2; experiment: scFv-phage ELISA
T18 construct: also called PD1 mutant M2-2

M4 = molecular target: T19, M4; experiment: scFv-phage ELISA
T19 construct: also called PD1 mutant M4

M9 [17] = molecular target: T10, M9; experiment: scFv-phage ELISA
M3 [18] = molecular target: T11, M3; experiment: scFv-phage ELISA
M12 [19] = molecular target: T12, M12; experiment: scFv-phage ELISA
M1-2 = molecular target: T20, M1-2; experiment: scFv-phage ELISA
T20 construct: also called PD1 mutant M1-2

T1 sequence (Q15116 25-288): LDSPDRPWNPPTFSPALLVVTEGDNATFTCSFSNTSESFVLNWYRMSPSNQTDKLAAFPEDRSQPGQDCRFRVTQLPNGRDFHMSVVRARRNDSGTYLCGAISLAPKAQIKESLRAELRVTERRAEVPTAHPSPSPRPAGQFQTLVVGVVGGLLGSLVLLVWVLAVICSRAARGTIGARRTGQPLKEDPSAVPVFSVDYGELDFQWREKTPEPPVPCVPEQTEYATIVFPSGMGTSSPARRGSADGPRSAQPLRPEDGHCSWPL

B1: PD1-41C9 (antibody, V domains shown)
VH: QMQLVESGGGVVQPGRSLRLSCAASGFTFSSYAMHWVRQAPGKGLEWVAVISYDGSNKYYADSVKGRFTISRDNSKNTLYLQMNRLRSEDTAVYYCTTTTFDSWGQGTLITVSS
VL: DIVMTQTPLSLPVTPGEAASISCRSSQSLLDSEDGNTYLDWYLQKPGQSPQLLIYTLSHRASGVPDRFSGSGSGTDFTLKISRVAAEDVGLYYCLQRMGFPYTFGQGTKLDIK
notes: scFv-phage in the screening ELISA; whole IgG in the other assays
- EC50 [nM], PD1/PD-L1 blockade bioassay [1]: 3.91 nM
- EC50 [2]: 5.89 nM
- OD490 (M7 [3]): 0.8
- OD490 (M1 [4]): 3.2
- OD490 (M13): 3.6
- OD490 (M10): 3.4
- OD490 (M11 [5]): 0.9
- OD490 (M5-1): 2.8
- OD490 (M5 [6]): 2.3
- OD490 (M8 [7]): 2.5
- OD490 (M9 [8]): 3.3
- OD490 (M3 [9]): 2.3
- OD490 (M12 [10]): 3.1
- OD490 (M7 [11]): 0.8
- OD490 (M1 [12]): 3.2
- OD490 (M2-1): 3.4
- OD490 (M1-1): 3.1
- OD490 (M14): 3.5
- OD490 (M6): 3.6
- OD490 (M11 [13]): 0.9
- OD490 (M5 [14]): 2.3
- OD490 (M8 [15]): 2.5
- OD490 [16]: 3.2
- OD490 (M2-2): 3.2
- OD490 (M4): 3.2
- OD490 (M9 [17]): 3.3
- OD490 (M3 [18]): 2.3
- OD490 (M12 [19]): 3.1
- OD490 (M1-2): 3.2

B2: PD1-49A2 (antibody, V domains shown)
VH: QVQLVESGGGVVQPGRSLRLSCAASGFTFSSYAMHWVRQAPGKGLEWVAVISYDGSNKYYADSVKGRFTISRDNPKNTLYLQMNSLRAEDTAVYYCTTTTFDSWGRGTLVTVSS
VL: DIVMTQSPLSLPVTPGEPASISCRSSQSLFDSDDGNTYLDWYLQKPGQSPQLLIYTLSHRASGVPDRFSGSGSGTDFTLKISRVEAEDVGIYYCLQRMGFPYTFGQGTKVEIK
notes: scFv-phage in the screening ELISA; whole IgG in the other assays; also called Parent 49A2
- EC50 [nM], PD1/PD-L1 blockade bioassay [1]: 3.78 nM
- EC50 [2]: 5.07 nM
- OD490 (M7 [3]): 0.4
- OD490 (M1 [4]): 3
- OD490 (M13): 3.9
- OD490 (M10): 2.6
- OD490 (M11 [5]): 0.4
- OD490 (M5-1): 0.7
- OD490 (M5 [6]): 1.2
- OD490 (M8 [7]): 3
- OD490 (M9 [8]): 3.7
- OD490 (M3 [9]): 3.4
- OD490 (M12 [10]): 3.9
- OD490 (M7 [11]): 0.4
- OD490 (M1 [12]): 3
- OD490 (M2-1): 3.7
- OD490 (M1-1): 3.4
- OD490 (M14): 3.9
- OD490 (M6): 3.9
- OD490 (M11 [13]): 0.4
- OD490 (M5 [14]): 1.2
- OD490 (M8 [15]): 3
- OD490 [16]: 3.6
- OD490 (M2-2): 3.8
- OD490 (M4): 3.9
- OD490 (M9 [17]): 3.7
- OD490 (M3 [18]): 3.4
- OD490 (M12 [19]): 3.9
- OD490 (M1-2): 3.8

B3: PD1-52E8 (antibody, V domains shown)
VH: QVQLVQSGGNLVQPGRSLRLSCAASGFTFDDYAMHWVRQAPGKGLEWVSGISWNSGTPGYADSVQGRFTISRDNAKNSLYLQMNSLRAEDTAVYYCARGHNYLDSSYYDYWGQGTLVTVSS
VL: SYELTQPLSLSVAPGQTARITCSGDALSKEYSYWYQQKPGQAPVLVMYKDSERPSGIPERFSGSSSGTTVTLTISGVQAEDEADYYCQSVDSSDTSVVFGGGTKLTVL
notes: as for B1
- EC50 [nM], PD1/PD-L1 blockade bioassay [1]: 8.43 nM
- OD490 (M7 [3]): 1
- OD490 (M1 [4]): 1.4
- OD490 (M13): 3.9
- OD490 (M10): 1
- OD490 (M11 [5]): 0.2
- OD490 (M5-1): 0.3
- OD490 (M5 [6]): 0.5
- OD490 (M8 [7]): 0.6
- OD490 (M9 [8]): 2.4
- OD490 (M3 [9]): 1.5
- OD490 (M12 [10]): 3.2
- OD490 (M7 [11]): 1
- OD490 (M1 [12]): 1.4
- OD490 (M2-1): 2.9
- OD490 (M1-1): 1.5
- OD490 (M14): 2.6
- OD490 (M6): 3.4
- OD490 (M11 [13]): 0.2
- OD490 (M5 [14]): 0.5
- OD490 (M8 [15]): 0.6
- OD490 [16]: 0.4
- OD490 (M2-2): 3.4
- OD490 (M4): 3.7
- OD490 (M9 [17]): 2.4
- OD490 (M3 [18]): 1.5
- OD490 (M12 [19]): 3.2
- OD490 (M1-2): 3.6

B4: PD1-45D6 (antibody, V domains shown)
VH: QVQLVESGGGVVQPGRSLRLSCAASGFTFSSYAMHWVRQVPGKGLEWVAVISYDGNDKYYADSVKGRFTISRDNSKNTLYLQMNSLRAEDTAVYYCVPTTFEYWGQGSQVTVSS
VL: DIVMTQTPLSLPVTPGEAASISCRSSQSLLDSDDGKTYLDWYLQKPGQSPQLLIYTLSYRASGVPDRFSGSGSGTEFNLRISRVEAEDVGIYYCMQRVEFPFTFGQGTKLDIK
notes: as for B1
- EC50 [nM], PD1/PD-L1 blockade bioassay [1]: 2 nM
- EC50 [2]: 4.84 nM
- OD490 (M7 [3]): 0.5
- OD490 (M1 [4]): 4
- OD490 (M13): 4
- OD490 (M10): 3.9
- OD490 (M11 [5]): 0.7
- OD490 (M5-1): 3.8
- OD490 (M5 [6]): 3.6
- OD490 (M8 [7]): 3.8
- OD490 (M9 [8]): 3.8
- OD490 (M3 [9]): 3.8
- OD490 (M12 [10]): 3.9
- OD490 (M7 [11]): 0.5
- OD490 (M1 [12]): 4
- OD490 (M2-1): 3.9
- OD490 (M1-1): 3.8
- OD490 (M14): 3.9
- OD490 (M6): 3.9
- OD490 (M11 [13]): 0.7
- OD490 (M5 [14]): 3.6
- OD490 (M8 [15]): 3.8
- OD490 [16]: 3.8
- OD490 (M2-2): 3.8
- OD490 (M4): 3.9
- OD490 (M9 [17]): 3.8
- OD490 (M3 [18]): 3.8
- OD490 (M12 [19]): 3.9
- OD490 (M1-2): 3.9
